T1: Cyt18 (mitochondrial tyrosyl-tRNA synthetase, CYT-18) (Neurospora crassa, UniProt P12063 P12063:33-669)
T1 sequence: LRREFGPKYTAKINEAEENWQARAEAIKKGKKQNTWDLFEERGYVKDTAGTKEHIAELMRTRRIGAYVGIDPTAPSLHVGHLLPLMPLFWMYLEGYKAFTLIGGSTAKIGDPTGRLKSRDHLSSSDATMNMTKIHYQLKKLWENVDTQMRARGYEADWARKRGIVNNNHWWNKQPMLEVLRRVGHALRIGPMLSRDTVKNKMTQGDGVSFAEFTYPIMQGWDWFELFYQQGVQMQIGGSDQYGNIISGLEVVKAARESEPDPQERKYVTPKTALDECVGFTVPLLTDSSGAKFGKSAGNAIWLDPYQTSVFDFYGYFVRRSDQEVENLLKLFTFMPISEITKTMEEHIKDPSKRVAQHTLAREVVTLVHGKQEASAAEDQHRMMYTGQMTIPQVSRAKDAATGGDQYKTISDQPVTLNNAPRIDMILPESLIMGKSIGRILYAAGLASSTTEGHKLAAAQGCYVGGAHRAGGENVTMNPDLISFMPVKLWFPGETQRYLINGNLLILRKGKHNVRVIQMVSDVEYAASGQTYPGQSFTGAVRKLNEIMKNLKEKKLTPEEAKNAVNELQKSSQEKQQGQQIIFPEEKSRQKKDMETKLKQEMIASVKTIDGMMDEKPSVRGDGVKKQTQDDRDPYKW


Columns and labels:
hen egg white lysozyme [1] = molecular target: T2, hen egg white lysozyme (UniProt P00698 P00698:19-147); test: competition
Protocol: (§1) Ligation assays. In one example, 10 pmol of [³²P]-body-labeled ribozyme and 20 pmol effector oligonucleotide were denatured for 3 min at 70° C. in 5 μl water. The RNA mixture was cooled to room temperature followed by addition of ligation buffer and target protein (20 pmol unless otherwise stated, or water in place of ligand, in the case of […]). After a 5 min equilibration at room temperature, reactions were initiated by the addition of 20 pmol substrate oligonucleotide (S28A) in a final volume of 15 μl. Reactions were incubated at 25° C., and 4 μl aliquots were removed at three appropriate time points and terminated by the addition of 18 μl of SDS stop mix (100 mM EDTA, 80% formamide, 0.8% SDS, 0.05% bromophenol blue, 0.05% xylene cyanol). Samples were denatured for 3 min at 70° C., ligated and unligated species were separated from one another on 8% polyacrylamide gels containing 0.1% SDS, and the amounts of products formed were determined using a Phosphorimager (Molecular Dynamics, Sunnyvale, Calif.). Assays performed over a broad range of protein concentrations (e.g, FIG. 21) differed from typical reaction conditions in that only 1 pmol ribozyme was present in a 10 μl final volume.
(§2) Competition assays. Ligation assays were performed as described above, using 10 pmol of [³²P]-body-labeled ribozyme (cyt7-2 or lys11-2; […]) and 20 pmol effector oligonucleotide (2 μM). The denatured and annealed RNA mixture was combined with ligation buffer, 20 pmol protein (Cyt18, lysozyme, or water in the case of (−) protein samples; 2 μM), and 30 pmol of denatured and annealed competitor RNA (3 μM).

[2] = molecular target: T1, Cyt18 (mitochondrial tyrosyl-tRNA …); test: competition; details: chain copies: 2
Protocol: as §1, §2

hen egg white lysozyme [3] = molecular target: T2, hen egg white lysozyme; test: competition; no appreciable inhibition of lys11-2 activation
Protocol: as §1
(§3) Competition assays. Ligation assays were performed as described above, using 10 pmol of [³²P]-body-labeled ribozyme (cyt7-2 or lys11-2; […]) and 20 pmol effector oligonucleotide (2 μM). […]

[4] = molecular target: T1, Cyt18 (mitochondrial tyrosyl-tRNA …); test: competition; greatest reduction of Cyt18 activation of cyt7-2; 3 uM competitor; details: chain copies: 2
Protocol: as §1, §3

| Binder | binding result (hen egg white lysozyme [1]) | binding result [2] | binding result (hen egg white lysozyme [3]) | binding result [4] |
| --- | --- | --- | --- | --- |
| M12 (ssRNA) RNA: GGGAAUGGAUCCACAUCUACGAAUUCGAGUCGAGAACUGGUGCGAAUGCGAGUAAGUUCACUCCAGACUUGACGAAGCUU | no binding | binds |  |  |
| c1 (ssRNA) RNA: GGGAAUGGAUCCACAUCUACGAAUUCAUCAGGGCUAAAGAGUGCAGAGUUACUUAGUUCACUCCAGACUUGACGAAGCUU | binds |  |  |  |
| ND1 group I intron (ssRNA) RNA: GACUAAUAUGAUUUGGUCUCAUUAAAGAUCACAAAUUGCUGGAAACUCCUUUGAGGCUAGGACAAUCAGCAAGGAAGUUAACAUAUAAUGUUAAAACCUUCAGAGACUAGACGUGAUCAUUUAAUAGACGCCUUGCGGCUCUUAUUAGAUAAGGUAUAGUCCAAAUUUGUAUGUAAAUACAAAAUGAUAAAAAAAAAUGAAAUCAUAUGGG |  |  | no binding | binds |
| B17 (ssRNA) RNA: GGGAAUGGAUCCACAUCUACGAAUUCGUAGCGUAGAGUAUGAGAGAGCCAAGGUCAGGUUCACUCCAGACUUGACGAAGCUU | no binding |  |  |  |
